From the supplement of paper PMC9732359
± gives the uncertainty stated by the source.

Assay: protein stability index of a GFP-peptide fusion (yeast GPS) (PSI 1-4); higher = more stable; sorted into four equal gates, so the index is relative within each strain
Settings: pdr5∆
Procedure, shortened: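 For each peptide, the protein stability index sums the read frequency in every gate after multiplying it by the gate number. Read frequencies came from plasmids that were PCR-amplified from each gate and Illumina-sequenced, with reads assigned to strains by barcodes. The gates were four equal bins of GFP/Cherry fluorescence ratio applied to mid-log yeast in leucine-free medium carrying a pooled library of tiled 17-residue yeast protein peptides fused downstream of GFP on a Cherry-expressing plasmid.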

Going from LTSVTRHGFNRSNTGAL [RPO21] to LTTAREHHSSVKYASPN [FAS2], the protein stability index rises from 2.39 ± 0.063 to 3.11 ± 0.057.

For LVAIFGGQGNTDDYFEE [FAS1], the protein stability index was 3.48 ± 0.083.

Same assay, conditions: san1∆

LLTVEEGQLKPGDGSSY [RPC25] and LLWTPKKLEITSDGALS [RPR2] are within error of each other in protein stability index: 2.83 ± 0.18 for the first, 2.61 ± 0.044 for the second.

LMAQIFFGPTYYQRLRH [RPB2] and LMEASDAFRVHICGICG [RPB2] are within error of each other in protein stability index: 2.08 ± 0.048 for the first, 2.23 ± 0.11 for the second.

First: LMEIHNILKVDSNSSSS [RGR1]
Second: LMLGSVNLPGGILRRKS [RRP4]
The protein stability index of the first is higher: 2.63 ± 0.064 for the first, 1.54 ± 0.14 for the second.

Going from LMRQGVLGIKVKIMRDP [RPS3] to LNAKYQSLGLDDLQKFN [ISW2], the protein stability index rises from 2.25 ± 0.083 to 2.74 ± 0.049.

Going from LNCCGSVARVEDHDVHS [IRR1] to LNEMLNTRKNMSISLES [DIS3], the protein stability index rises from 2.41 ± 0.068 to 2.63 ± 0.069.

First: LNHILEKSTQLQQKHEL [YGR119C/NUP57]
Second: LNISPFTFGLTVVQVYD [RPP0]
The protein stability index of the first is higher: 2.66 ± 0.034 for the first, 1.55 ± 0.072 for the second.

LNKEKLGPLFKKIVDDT [IRR1] and LNLDSEQTVEYMVSRAI [RPN3] are within error of each other in protein stability index: 3.22 ± 0.23 for the first, 2.93 ± 0.25 for the second.

Going from LNLQFKAKVDDLVLGKP [YLR335W/NUP2] to LNSYHIKNGRIYFTVPN [RGR1], the protein stability index falls from 3.34 ± 0.067 to 2.19 ± 0.056.

First: LNVVLDDAMEINGEDPA [SMX2]
Second: LNWFRTTNMNVNNCIWA [RGR1]
The protein stability index of the first is higher: 3.46 ± 0.039 for the first, 1.15 ± 0.12 for the second.

Going from LNYGNICEPKETLSIFT [YJL039C/NUP192] to LPAYSGEIGDFFSSDWR [POP1], the protein stability index rises from 2.02 ± 0.12 to 3.24 ± 0.068.

Going from LPFMQNAGPNSNIPNLL [YDL088C/ASM4] to LPFYAILRSIPDKLLGV [COB], the protein stability index falls from 2.58 ± 0.039 to 2.1 ± 0.055.

Compared with LPGTEKGRKTNKYANND [CSL4], LPHSPLWELALAFIPNI [YML031W/NDC1] is lower in protein stability index: 3.2 ± 0.072 for the first, 1.24 ± 0.092 for the second.

First: LPKYKEKKAASAKQTAP [MED7]
Second: LPLFYDLLNAASIESAD [IRR1]
The protein stability index of the first is higher: 2.74 ± 0.056 for the first, 2.27 ± 0.047 for the second.

Going from LPLPPSVEWMKVSPSMC [SIN4] to LPLWHLLNRIPRMYHIG [POP1], the protein stability index rises from 1.69 ± 0.09 to 2.06 ± 0.21.

LPLYEKNTLLERLKQLT [SWP82] and LPNQIPGEYITTIKAIF [YMR129W/POM152] are within error of each other in protein stability index: 2.73 ± 0.1 for the first, 2.78 ± 0.053 for the second.

First: LPRCSKEEFRLMISPKD [RRI2]
Second: LPSHIISTSDVTRIINS [RPL4A]
The protein stability index of the first is lower: 1.58 ± 0.16 for the first, 2.41 ± 0.035 for the second.

First: LPTRGTLESLENLVVAD [COR1]
Second: LPYERHMISQEGIKETQ [SWI1]
The protein stability index of the first is higher: 2.84 ± 0.057 for the first, 1.3 ± 0.14 for the second.

LQEAIDFAQKEINGDDD [PRE10] and LQEKEQLYFKKKVNYKV [ISW2] are within error of each other in protein stability index: 3.23 ± 0.067 for the first, 3.26 ± 0.23 for the second.

LQELIVNGPNVHPGANY [RPO31] and LQHLRSRCHLVTKDTKK [SRP68] are within error of each other in protein stability index: 2.99 ± 0.072 for the first, 2.93 ± 0.12 for the second.

First: LQKQMGIGSLTDLMSIV [RPC34]
Second: LQLAPGAHLGRFVIWTE [RPL4A]
The protein stability index of the first is lower: 2.68 ± 0.12 for the first, 3.18 ± 0.099 for the second.

Going from LQLASLQQKQRDLILKK [SMC3] to LQNNSDSESDSDSETNH [SKP1], the protein stability index falls from 3.1 ± 0.097 to 2.84 ± 0.055.

Going from LQPVIPGGAASKSVPTP [SNF5] to LQQELATTQDQVASIIE [NUT2], the protein stability index rises from 3.12 ± 0.049 to 3.23 ± 0.053.

Going from LQQICRVRNKDIRKFLD [RPL9A] to LQQKQQQRFQALQQQQQ [SWI1], the protein stability index falls from 2.04 ± 0.1 to 1.37 ± 0.083.

First: LQVLKRERDGIKEDIEK [SMC1]
Second: LQYIIHDTLNNEIANSI [BRR2]
The protein stability index of the first is higher: 3.15 ± 0.066 for the first, 2.86 ± 0.077 for the second.

Going from LQYYILEYMNTARINNR [RRI2] to LRELDVELIESKINELS [SMC4], the protein stability index rises from 1.96 ± 0.14 to 3.38 ± 0.073.

LRGEYNDLQSETKTKKE [SMC4] and LRGSLLSRKPSDNKKRS [RPC82] are within error of each other in protein stability index: 3.24 ± 0.072 for the first, 3.27 ± 0.1 for the second.

First: LRIVKPTVSLTINLDRF [RPC82]
Second: LRKIQALRDVKNNNNAN [GAL11]
The protein stability index of the first is lower: 2.46 ± 0.063 for the first, 3.15 ± 0.1 for the second.

Compared with LRLLLLLIEFPYLPKHY [YJR042W/NUP85], LRLSNFFTIDHFIQKLH [SIR2] is higher in protein stability index: 1.55 ± 0.062 for the first, 2.23 ± 0.074 for the second.

LRNKLIESNKLAGVLYE [RRP6] and LRNVFLGKCSRITDASL [GRR1] are within error of each other in protein stability index: 2.79 ± 0.28 for the first, 2.68 ± 0.07 for the second.

Compared with LRPLFTRYELYIKNILE [YLR335W/NUP2], LRRASATVPSAPYRKQI [YAR002W/NUP60] is higher in protein stability index: 1.8 ± 0.081 for the first, 2.07 ± 0.13 for the second.

Going from LRRVEERFTKSKTLSLI [FAS1] to LRSDIPCLSRSCTKCPQ [DIS3], the protein stability index rises from 2.17 ± 0.087 to 2.91 ± 0.031.

Going from LRYVIMKNPDVEFCGYS [RPC19] to LSAEYLVILKPDLNIDR [SIN4], the protein stability index rises from 2.3 ± 0.15 to 2.97 ± 0.058.

LSATGTRSAKKMVIAEL [YJR042W/NUP85] and LSAVAQAESMKFKLLNG [RPS3] are within error of each other in protein stability index: 2.97 ± 0.15 for the first, 2.83 ± 0.12 for the second.

LSEATESDLYKLKECPF [RPB2] and LSEDELRELDVELIESK [SMC4] are within error of each other in protein stability index: 3.23 ± 0.1 for the first, 3.4 ± 0.11 for the second.

Compared with LSESLTKFFDDAKSTPL [RPN9], LSEYDAIQKKDNKDKEG [YOR098C/NUP1] is higher in protein stability index: 3.18 ± 0.055 for the first, 3.38 ± 0.11 for the second.

First: LSFGTATSDNKTTNTTP [YJL041W/NSP1]
Second: LSFINPKTGKVERSEAI [SEC65]
The protein stability index of the first is lower: 2.24 ± 0.1 for the first, 3.33 ± 0.14 for the second.

Compared with LSGNPLTSVTNDICSVE [SIR4], LSGVSNSMDMVDGMAKV [RGR1] is higher in protein stability index: 3.09 ± 0.058 for the first, 3.44 ± 0.13 for the second.

LSIAFENGDYAACEKLL [RPN12] and LSIDKVLKKPNRAMEYD [RET1] are within error of each other in protein stability index: 3.16 ± 0.077 for the first, 3.18 ± 0.2 for the second.

First: LSIELEGGKNQAELLQL [YJL039C/NUP192]
Second: LSLGMDFIKFDQIAVCE [BRN1]
The protein stability index of the first is higher: 3.31 ± 0.21 for the first, 2.77 ± 0.057 for the second.

First: LSLQRANVEILAVEDKP [CSL4]
Second: LSNEFTATNSKGEQIAI [ECM29]
The protein stability index of the first is lower: 1.67 ± 0.092 for the first, 2.91 ± 0.18 for the second.

Compared with LSQLCAVPLQIVSPQSN [RPO21], LSQSRIKIKSLEYEISK [YIL149C/MLP2] is higher in protein stability index: 1.9 ± 0.084 for the first, 2.37 ± 0.07 for the second.

Going from LSRPSLPKIKTVRKSIA [RPL35A] to LSSDDLLGKESFKKIIK [YCS4], the protein stability index rises from 2.31 ± 0.059 to 3.39 ± 0.063.

First: LSVMCGCGTVKRFNIGA [RPR2]
Second: LSYYVEETNVDIGVLEE [SMC4]
The protein stability index of the first is lower: 3.14 ± 0.14 for the first, 3.62 ± 0.072 for the second.

Going from LTCSLYELYINKLTILG [IRR1] to LTDKDAFETHYRRLFAK [CDC53], the protein stability index rises from 1.34 ± 0.059 to 2.97 ± 0.047.

Going from LTIKDIVLGVKDLQENL [RPO21] to LTKKYSFKIFVDVLVIS [RRP42], the protein stability index falls from 3.6 ± 0.048 to 1.41 ± 0.071.

Compared with LTLDPRYIWRSLKDLSS [RPN3], LTLLERKWVIFITKHLP [NUT1] is lower in protein stability index: 2.82 ± 0.097 for the first, 1.45 ± 0.13 for the second.

LTLQEDYIKDEQRHLKR [RPT3] and LTNLLSQLNIQLSQDEH [SRP72] are within error of each other in protein stability index: 3.14 ± 0.085 for the first, 3.21 ± 0.046 for the second.

LTQLLSMMSDGIEHFDI [RPO31] and LTSDLVYFGDENKVMLP [RRI2] are within error of each other in protein stability index: 3.1 ± 0.052 for the first, 3.07 ± 0.076 for the second.

First: LTSGLLYSYLIKENFFE [YJL039C/NUP192]
Second: LTSVTRHGFNRSNTGAL [RPO21]
The protein stability index of the first is lower: 1.71 ± 0.12 for the first, 2.75 ± 0.093 for the second.

In the case of LTTAREHHSSVKYASPN [FAS2], the protein stability index is reported as 3.04 ± 0.041.
